From the supplement of paper PMC7877785
± gives the uncertainty stated by the source.

Assay: self-splicing fitness, log relative to wild type (ln ratio); higher = more splicing; Tetrahymena group I intron in knt gene, E. coli kanamycin selection, DiMSum; sequences stand for … in CUCUCU…GGAGGGAAAAGUUAUCAGGCAUGCACCUGGUAGCUAGUCUUUAAACCAAUAGAUUGCAUCGGUUUAAAAGGCAAGACCGUCAAAUUGCGGGAAAGGGGUCAACAGCCGUUCAGUACCAAGUCUCAGGGGAAACUUUGAGAUGGCCUUGCAAAGGGUAUGGUAAUAAGCUGACGGACAUGGUCCUAACCACGCAGCCAAGUCCUAAGUCAACAGAUCUUCUGUUGAUAUGGAUGCAGUUCACAGACUAAAUGUCGGUCGGGGAAGAUGUAUUCUUCUCAUAAGAUAUAGUCGGACCUCUCCUUAAUGGGAGCUAGCGGAUGAAGUGAUGCAACACUGGAGCCGCUGGGAACUAAUUUGUAUGCGAAAGUAUAUUGAUUAGUUUUGGAGUACUCGUGGUCG
Outline: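 DiMSum derived fitness as the error-weighted combination of fold changes across replicates, kanamycin versus no kanamycin, normalised to wild type. E. coli BL21(DE3) held the library, which randomised all eight P1ex-region intron nucleotides within the knt kanamycin-resistance gene on pET-22b(+). Six replicate transformations grew overnight at 37°C or 30°C on LB agar with or without 25 μg/mL kanamycin, also containing 100 μg/mL carbenicillin, 50 μM IPTG and 0.2% rhamnose, and pooled colonies were amplicon-sequenced on an Illumina HiSeq 2500.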

| Sequence | self-splicing fitness (ln) (30 °C) | self-splicing fitness (ln) (37 °C) |
| --- | --- | --- |
| UUUCAGCAAUAUUACGCCCC | -1.57 ± 0.3 | – |
| GUAGAGCAAUAUUACGAUGU | -1.04 ± 0.18 | -0.121 ± 0.19 |
| GUGUAGCAAUAUUACGGUGC | -2.8 ± 0.21 | -2.18 ± 0.18 |
| CCCGAGCAAUAUUACGGCAC | – | -2.32 ± 0.28 |
| CUCAAGCAAUAUUACGUUUA | -3.93 ± 0.24 | -2.65 ± 0.16 |
| CGGUAGCAAUAUUACGUAGC | -3.25 ± 0.2 | -3.13 ± 0.27 |
| ACCCAGCAAUAUUACGCGUC | -2.16 ± 0.088 | -1.42 ± 0.11 |
| CCGAAGCAAUAUUACGUCAG | -1.47 ± 0.071 | -0.198 ± 0.11 |
| AUGUAGCAAUAUUACGGCCG | -2.32 ± 0.31 | -0.303 ± 0.33 |
| CAACAGCAAUAUUACGGCGA | -1.5 ± 0.094 | -0.709 ± 0.087 |
| UUUCAGCAAUAUUACGCAGG | -2.53 ± 0.18 | -1.65 ± 0.23 |
| GUCUAGCAAUAUUACGUUUU | -1.2 ± 0.08 | -0.759 ± 0.084 |
| UACUAGCAAUAUUACGGAAG | -3.07 ± 0.26 | -2.91 ± 0.43 |
| ACCUAGCAAUAUUACGUACC | -1.59 ± 0.099 | -0.156 ± 0.11 |
| GAACAGCAAUAUUACGAUAA | -0.728 ± 0.076 | -0.326 ± 0.092 |
| ACUAAGCAAUAUUACGUUAC | -3.81 ± 0.2 | -3.08 ± 0.3 |
| AUGAAGCAAUAUUACGCCGG | -0.936 ± 0.11 | 0.108 ± 0.18 |
| GGCAAGCAAUAUUACGACCU | -0.895 ± 0.12 | -0.997 ± 0.12 |
| GUUAAGCAAUAUUACGAUAG | – | -2.07 ± 0.34 |
| UAUCAGCAAUAUUACGGAGU | -2.09 ± 0.068 | -0.974 ± 0.09 |
| UGGUAGCAAUAUUACGGGAG | -3.82 ± 0.43 | -1.6 ± 0.13 |
| CUGGAGCAAUAUUACGGAGU | -2.37 ± 0.22 | – |
| GCUCAGCAAUAUUACGAUUU | -0.259 ± 0.056 | 0.00309 ± 0.075 |
| CAAUAGCAAUAUUACGUGUC | -3.97 ± 0.18 | -3.28 ± 0.21 |
| GGUGAGCAAUAUUACGGAUG | -3.73 ± 0.22 | -2.62 ± 0.22 |
| CACCAGCAAUAUUACGGAGU | -3.74 ± 0.18 | -2.54 ± 0.15 |
| GUAGAGCAAUAUUACGAGAA | -3.8 ± 0.34 | -1.72 ± 0.47 |

| Sequence | self-splicing fitness (ln) (30 °C) | self-splicing fitness (ln) (37 °C) |
| --- | --- | --- |
| GGUUAGCAAUAUUACGACAG | -1.69 ± 0.2 | -0.85 ± 0.23 |
| CAUCAGCAAUAUUACGCCCG | -0.306 ± 0.12 | 0.0609 ± 0.15 |
| AGCAAGCAAUAUUACGUCGG | -2.93 ± 0.19 | -1.59 ± 0.19 |
| CAAUAGCAAUAUUACGCGCA | -2.68 ± 0.19 | -1.7 ± 0.18 |
| CUAAAGCAAUAUUACGGGGC | -2.86 ± 0.36 | -2.78 ± 0.28 |
| ACUUAGCAAUAUUACGACCU | -0.101 ± 0.16 | -0.219 ± 0.2 |
| UAUGAGCAAUAUUACGCAGG | -2.59 ± 0.26 | -2.34 ± 0.22 |
| CCGUAGCAAUAUUACGGUUU | -2.85 ± 0.16 | -3.05 ± 0.27 |
| GCGUAGCAAUAUUACGCGUA | -2.83 ± 0.46 | -2.3 ± 0.37 |
| UGGCAGCAAUAUUACGCGCU | – | -2.45 ± 0.49 |
| AACGAGCAAUAUUACGUUCG | -3 ± 0.48 | -1.19 ± 0.2 |
| GCAGAGCAAUAUUACGGUAC | -2.65 ± 0.22 | -1.79 ± 0.45 |
| UAGUAGCAAUAUUACGUCGA | -1.6 ± 0.17 | -1.24 ± 0.16 |
| ACAAAGCAAUAUUACGUAAC | -3.21 ± 0.21 | -1.67 ± 0.14 |
| UGGAAGCAAUAUUACGCACA | -1.44 ± 0.2 | 0.0258 ± 0.2 |
| ACAAAGCAAUAUUACGUCUG | -1.1 ± 0.056 | -0.244 ± 0.074 |
| UGCGAGCAAUAUUACGCGGA | -2.41 ± 0.28 | -2.09 ± 0.31 |
| UGAGAGCAAUAUUACGCUCG | – | -1.32 ± 0.45 |
| CUGCAGCAAUAUUACGCUGU | -1.87 ± 0.12 | -2.8 ± 0.3 |
| AAUUAGCAAUAUUACGGCCC | -0.766 ± 0.18 | -0.626 ± 0.29 |
| AGGGAGCAAUAUUACGCGAG | -3.35 ± 0.19 | -2.47 ± 0.19 |
| CGGUAGCAAUAUUACGCAUG | -0.808 ± 0.069 | 0.339 ± 0.08 |
| UUGCAGCAAUAUUACGGGAA | -1.51 ± 0.12 | 0.101 ± 0.11 |
| GUAAAGCAAUAUUACGUGAA | -1.96 ± 0.1 | -1.39 ± 0.12 |
| CUAGAGCAAUAUUACGGGUC | -4.31 ± 0.25 | -3.61 ± 0.39 |
| GUAGAGCAAUAUUACGCGCC | -3.54 ± 0.29 | -1.67 ± 0.38 |
| GUCAAGCAAUAUUACGAUGA | -2.41 ± 0.17 | -1.1 ± 0.11 |

| Sequence | self-splicing fitness (ln) (30 °C) | self-splicing fitness (ln) (37 °C) |
| --- | --- | --- |
| CCUGAGCAAUAUUACGUGGC | -3.15 ± 0.24 | – |
| CCCCAGCAAUAUUACGCGGA | -3.34 ± 0.15 | -2.07 ± 0.12 |
| UAUCAGCAAUAUUACGCUUG | -0.489 ± 0.098 | 0.0735 ± 0.12 |
| GAAUAGCAAUAUUACGGAUU | -0.925 ± 0.053 | -0.4 ± 0.07 |
| GCUCAGCAAUAUUACGAGGC | -4.34 ± 0.42 | -1.42 ± 0.19 |
| GGCCAGCAAUAUUACGGAAA | -1.27 ± 0.11 | -0.606 ± 0.13 |
| CUACAGCAAUAUUACGUCAU | -4.33 ± 0.22 | -3.72 ± 0.19 |
| UACGAGCAAUAUUACGAUUC | -3.01 ± 0.28 | -2.83 ± 0.3 |
| GGUGAGCAAUAUUACGGGAC | -3.63 ± 0.29 | -1.85 ± 0.19 |
| UACUAGCAAUAUUACGCGCU | -3.19 ± 0.18 | -1.8 ± 0.15 |
| UACAAGCAAUAUUACGGAGA | -2.4 ± 0.17 | -3.27 ± 0.23 |
| GCAGAGCAAUAUUACGUAGU | -3.3 ± 0.28 | -3.09 ± 0.37 |
| UUUAAGCAAUAUUACGGAUC | -1.33 ± 0.43 | – |
| AAGCAGCAAUAUUACGGCCU | -0.182 ± 0.057 | 0.636 ± 0.074 |
| GCUCAGCAAUAUUACGCGUA | -0.217 ± 0.067 | -0.265 ± 0.079 |
| AUGGAGCAAUAUUACGUUCA | -1.16 ± 0.12 | -0.311 ± 0.14 |
| GCAGAGCAAUAUUACGAAUA | -3.67 ± 0.32 | -2.78 ± 0.26 |
| AUCAAGCAAUAUUACGCAGG | -2.34 ± 0.2 | -1.8 ± 0.2 |
| CCAGAGCAAUAUUACGAUUA | -3.29 ± 0.3 | – |
| UACAAGCAAUAUUACGAUGC | -3.69 ± 0.28 | -3.13 ± 0.29 |
| CCUAAGCAAUAUUACGCUUU | -3.09 ± 0.23 | -2.17 ± 0.26 |
| CAGCAGCAAUAUUACGAACA | -2.72 ± 0.38 | -2.17 ± 0.32 |
| GCGGAGCAAUAUUACGCGAU | -2.58 ± 0.33 | -2.18 ± 0.36 |
| CUGCAGCAAUAUUACGGCUG | -3.32 ± 0.3 | -1.52 ± 0.26 |
| CCAAAGCAAUAUUACGGAAG | -2 ± 0.056 | -1.11 ± 0.074 |
